Data: publication PMC11898079, “Single-Molecule Imaging of Wood Xylans on Surfaces and Their Interaction with GH11 Xylanase” (Biomacromolecules, 2025)
Values joined by “and” are separate entries in the source; they are usually repeats but may differ in a detail not shown here. Identical values can stand only once.

Molecular target: the molecule itself
Assay: high-speed atomic force microscopy (HS-AFM); xylanase alone on a clean mica surface, tapping mode, 100 mM sodium phosphate buffer pH 6; 2 uL of 12.5 ug/mL xylanase added into 80 uL buffer during imaging; self-association seen as transient dimers and trimers of single molecules on the surface

B1: Endo-1,4-β-D-xylanase from Neocallimastix patriciarum (GH11) (enzyme)
chain: AEFQSFCSSASHSGQSVKVTGNKVGTIGGVGYELWADSGNNSATFYSDGSFSCTFQNAGDYLCRSGLSFDSTKTPSQIGRMKADFKLVKQNSSNVGYSYVGVYGWTRSPLVEYYIVDNWLSPFPPGDWVGNKKHGSFTIDGAQYTVYENTRTGPSIDGDTTFNQYFSIRQQARDCGTIDISAHFDQWEKLGMTMGKLHEAKVLGEAGNVNGGASGTADFPYAKVYIGD
notes: Endo-1,4-β-D-xylanase, glycoside hydrolase family 11, Neocallimastix patriciarum; printed Mw 25,800 g/mol; Commercial enzyme; also called GH11 xylanase; GH11 endoxylanase; source: bought: Megazyme Ltd
Question: B1 was tested. Which “stoichiometry N” value did it give?
Answer: 2 and 3
